Experimental data as given in US20140107043A1 (INSTITUT PASTEUR, published 2014).
Where no end group is shown, it is not given here. [ ]: non-standard residue; d: D form. Phe(4-CH2COOH) = N[C@@H](Cc1ccc(CC(=O)O)cc1)C(=O)O; GABA = NCCCC(=O)O

What was measured:
Test in all cases: cell-based or functional assay
[1] = target: envelope gp120 of HIV-1-LAI (X4-tropic strain), on virus (HIV-1 strain LAI, UniProt P03377 33-516, limits assumed)
[2] = target: envelope gp120 of HIV-1/Ba-L (R5-tropic strain), on virus (HIV-1 strain Ba-L)
[3] = target: envelope gp120 of HIV-1 92UG029 (clade A, X4), on virus (HIV-1 strain 92UG029)
[4] = target: envelope gp120 of HIV-1 SF162 (clade B, R5), on virus (HIV-1 strain SF162, UniProt P19550 32-502)
[5] = target: envelope gp120 of HIV-1 92US723 (clade B, R5/X4), on virus (HIV-1 strain 92US723)
[6] = target: envelope gp120 of HIV-1 96USHIPS4 (clade B, R5/X4), on virus (HIV-1 strain 96USHIPS4)
[7] = target: envelope gp120 of HIV-1 92HT599 (clade B, X4), on virus (HIV-1 strain 92HT599)
[8] = target: envelope gp120 of HIV-1 98IN017 (clade C, X4), on virus (HIV-1 strain 98IN017)

EEEEEEEEEEEEE (N-terminal gamma-aminobutyric acid (NH2-(CH2)3-CO-)) [E13 (H-gamma-Abu-(Glu)13-OH)]
> 500 nM: ED50, HIV-1 replication in PBMC [1] | ED70, HIV-1 replication in PBMC [1] | ED90, HIV-1 replication in PBMC [1] | ED50, HIV-1 replication in PBMC [2] | ED70, HIV-1 replication in PBMC [2] | ED90, HIV-1 replication in PBMC [2]

B1: P3pF (H-gamma-Abu-S-pF-D-pF-S-pF-D-pF-S-pF-D-pF-S-OH) (peptide)
peptide: [GABA]S[Phe(4-CH2COOH)]D[Phe(4-CH2COOH)]S[Phe(4-CH2COOH)]D[Phe(4-CH2COOH)]S[Phe(4-CH2COOH)]D[Phe(4-CH2COOH)]S-OH
modifications: N-terminus assumed
SMILES: NCCCC(=O)N[C@@H](CO)C(=O)N[C@@H](Cc1ccc(CC(=O)O)cc1)C(=O)N[C@@H](CC(=O)O)C(=O)N[C@@H](Cc1ccc(CC(=O)O)cc1)C(=O)N[C@@H](CO)C(=O)N[C@@H](Cc1ccc(CC(=O)O)cc1)C(=O)N[C@@H](CC(=O)O)C(=O)N[C@@H](Cc1ccc(CC(=O)O)cc1)C(=O)N[C@@H](CO)C(=O)N[C@@H](Cc1ccc(CC(=O)O)cc1)C(=O)N[C@@H](CC(=O)O)C(=O)N[C@@H](Cc1ccc(CC(=O)O)cc1)C(=O)N[C@@H](CO)C(=O)O
> 500 nM: ED50, HIV-1 replication in PBMC [1] | ED70, HIV-1 replication in PBMC [1] | ED90, HIV-1 replication in PBMC [1] | ED50, HIV-1 replication in PBMC [2] | ED70, HIV-1 replication in PBMC [2] | ED90, HIV-1 replication in PBMC [2]

B2: P3YSO3 (H-gamma-Abu-S-YSO3-D-YSO3-S-YSO3-D-YSO3-S-YSO3-D-YSO3-S-OH) (peptide)
peptide: SXDXSXDXSXDXS
modifications: N-terminal gamma-aminobutyric acid (NH2-(CH2)3-CO-); sulfotyrosine (YSO3) at the six X positions of S-X-D-X-S-X-D-X-S-X-D-X-S
> 500 nM: ED50, HIV-1 replication in PBMC [3] | ED70, HIV-1 replication in PBMC [3] | ED90, HIV-1 replication in PBMC [3] | ED50, HIV-1 replication in PBMC [4] | ED70, HIV-1 replication in PBMC [4] | ED90, HIV-1 replication in PBMC [4] | ED50, HIV-1 replication in PBMC [5] | ED70, HIV-1 replication in PBMC [5] | ED90, HIV-1 replication in PBMC [5] | ED50, HIV-1 replication in PBMC [6] | ED70, HIV-1 replication in PBMC [6] | ED90, HIV-1 replication in PBMC [6] | ED50, HIV-1 replication in PBMC [7] | ED70, HIV-1 replication in PBMC [7] | ED90, HIV-1 replication in PBMC [7] | ED50, HIV-1 replication in PBMC [8] | ED70, HIV-1 replication in PBMC [8] | ED90, HIV-1 replication in PBMC [8]

SYDYSYDYSYDYS (N-terminal gamma-aminobutyric acid (NH2-(CH2)3-CO-)) [P3Y (H-gamma-Abu-S-Y-D-Y-S-Y-D-Y-S-Y-D-Y-S-OH)]
> 500 nM: ED50, HIV-1 replication in PBMC [1] | ED70, HIV-1 replication in PBMC [1] | ED90, HIV-1 replication in PBMC [1] | ED50, HIV-1 replication in PBMC [2] | ED70, HIV-1 replication in PBMC [2] | ED90, HIV-1 replication in PBMC [2]
